Laboratory results published in patent US8367390B2, “Galactanase variants” (Novozymes A/S, priority 2002, dated 2013).

Test: Activity with ONPG, release of o-nitrophenol (ONP) at 405 nm
Type: biochemical
Experimental: The activity of HIGAL and MTGAL with ONPG was tested by mixing 200 microliters (normally 5.5 mg/ml) ONPG in 50 mM sodium acetate, 1 mM CaCl2, 0.01% Triton X-100, pH 6.5 with 25 microliters galactanase (normally 1 mg/ml) in the well of a microtiter plate. Release of o-nitrophenol (ONP) was measured at room temperature at 405 nm every 10 seconds normally for 30 min on a SpectraMaxPlus (Molecular Devices). Effects on the observed release of ONP was studied with varied enzyme concentration, ONPG concentration and with addition of galactose (Gal), beta-1,4-galactobiose (Gal2) (Megazyme), beta-1,4-galactotriose (Gal3), beta-1,4-galactotetraose (Gal4), glucose (Glu), arabinose (Ara), galacturonic acid (GalA), maltose (Mal) or maltotriose (Mal3).
In Tables 8-11 below, incubation times required to increase the observed absorbance at 405 nm by given amounts are listed. Cells marked ‘n.r.’ indicate that the increase in absorbance was not reached in the experiment. In general, the initial increase in absorbance at 405 nm was very slow, but after a lag phase the rate of ONP release often increased drastically—often approximately exponentially. The most likely explanation for the observed kinetics is that ONPG reacts with the enzyme to give an enzyme-galactosyl intermediate which hydrolyses very slowly. Instead, the Gal of the intermediate is released by transglycosylation, initially with ONPG or added sugar as acceptor. In cases where the rate of ONP release increases, these transglycosylation products are even better acceptors than the initial ones. […] More likely, Gal inhibits the subsequent transglycosylation, which requires binding of ONPG to the +1 and +2 subsites, e.g., by binding to the +2 subsite. With 50 mg/ml Gal added (results not shown) release of ONP was even slower with only insignificant increase of absorbance at 405 nm in 30 min.

[1] = Table 8, enzyme 28 μg/ml, ONPG 5 mg/ml, no sugar
[2] = Table 8, enzyme 55 μg/ml, ONPG 5 mg/ml, Gal 5 mg/ml
[3] = Table 8, enzyme 55 μg/ml, ONPG 5 mg/ml, no sugar
[4] = Table 8, enzyme 110 μg/ml, ONPG 5 mg/ml, Gal 5 mg/ml
[5] = Table 8, enzyme 110 μg/ml, ONPG 5 mg/ml, no sugar
[6] = Table 9, enzyme 110 μg/ml, ONPG 1.25 mg/ml
[7] = Table 9, enzyme 110 μg/ml, ONPG 2.5 mg/ml
[8] = Table 9, enzyme 110 μg/ml, ONPG 5 mg/ml
[9] = Table 9, enzyme 110 μg/ml, ONPG 10 mg/ml
[10] = Table 10, enzyme 110 μg/ml, ONPG 5 mg/ml, Gal2 0.05 mg/ml
[11] = Table 10, enzyme 110 μg/ml, ONPG 5 mg/ml, Gal2 0.5 mg/ml
[12] = Table 10, enzyme 110 μg/ml, ONPG 5 mg/ml, Gal3 0.05 mg/ml

- ONP release compared at identical enzyme dosage (Table 8): faster than MTGAL
B1: HIGAL: GH Family 53 galactanase from Humicola insolens, SEQ ID NO: 2 (wild type parent) (protein, listed as Humicola insolens)
chain: ALQYKGVDWSSVMVEERAGVRYKNVNGQEKPLEYILAENGVNMVRQRVWVNPWDGNYNLDYNIQLARRAKAAGLGLYINFHYSDTWADPAHQTTPAGWPSDINNLAWKLYNYTLDSMNRFADAGIQVDIVSIGNEITQGLLWPLGKTNNWYNIARLLHSAAWGVKDSRLNPKPKIMVHLDNGWNWDTQNWWYTNVLSQGPFEMSDFDMMGVSFYPFYSASATLDSLRRSLNNMVSRWGKEVAVVETNWPTSCPYPRYQFPADVRNVPFSAAGQTQYIQSVANVVSSVSKGVGLFYWEPAWIHNANLGSSCADNTMFTPSGQALSSLSVFHRI
modifications: mat_peptide (1)..()
- Effect of Ara on ONP release (Ara 5 mg/ml): about three times slower ONP release
- Slowing of ONP release by addition of Gal (Gal 5 mg/ml): a factor of three
- Effect of GalA on ONP release (GalA 5 mg/ml): weak inhibitory effect
- Effect of GalA on ONP release (GalA 50 mg/ml): slows ONP release by about a factor two
- Effect of Glu on ONP release (Glu 5 mg/ml): slight inhibitory effect
- ONP release in 30 min (Glu 50 mg/ml, results not shown): < 0.02
- Effect of Mal or Mal3 on ONP release (Mal or Mal3 5 mg/ml): no significant effects on ONP release
- Time (min) to increase A405 by: 0.025 [1]: 41.4 min
- Time (min) to increase A405 by: 0.05 [1]: 46.5 min
- Time (min) to increase A405 by: 0.1 [1]: 51.0 min
- Time (min) to increase A405 by: 0.2 [1]: 56.5 min
- Time (min) to increase A405 by: 0.4 [1]: n.r.
- Time (min) to increase A405 by: 0.8 [1]: n.r.
- Time (min) to increase A405 by: 1.6 [1]: n.r.
- Time (min) to increase A405 by: 3.2 [1]: n.r.
- Time (min) to increase A405 by: 0.025 [2]: 57.0 min
- Time (min) to increase A405 by: 0.05 [2]: n.r.
- Time (min) to increase A405 by: 0.1 [2]: n.r.
- Time (min) to increase A405 by: 0.2 [2]: n.r.
- Time (min) to increase A405 by: 0.4 [2]: n.r.
- Time (min) to increase A405 by: 0.8 [2]: n.r.
- Time (min) to increase A405 by: 1.6 [2]: n.r.
- Time (min) to increase A405 by: 3.2 [2]: n.r.
- Time (min) to increase A405 by: 0.025 [3]: 20.4 min
- Time (min) to increase A405 by: 0.05 [3]: 22.9 min
- Time (min) to increase A405 by: 0.1 [3]: 25.4 min
- Time (min) to increase A405 by: 0.2 [3]: 28.0 min
- Time (min) to increase A405 by: 0.4 [3]: 30.9 min
- Time (min) to increase A405 by: 0.8 [3]: 32.0 min
- Time (min) to increase A405 by: 1.6 [3]: 35.0 min
- Time (min) to increase A405 by: 3.2 [3]: 37.9 min
- Time (min) to increase A405 by: 0.025 [4]: 32.0 min
- Time (min) to increase A405 by: 0.05 [4]: 35.7 min
- Time (min) to increase A405 by: 0.1 [4]: 41.5 min
- Time (min) to increase A405 by: 0.2 [4]: 46.7 min
- Time (min) to increase A405 by: 0.4 [4]: 52.7 min
- Time (min) to increase A405 by: 0.8 [4]: 59.0 min
- Time (min) to increase A405 by: 1.6 [4]: n.r.
- Time (min) to increase A405 by: 3.2 [4]: n.r.
- Time (min) to increase A405 by: 0.025 [5]: 9.0 min
- Time (min) to increase A405 by: 0.05 [5]: 10.3 min
- Time (min) to increase A405 by: 0.1 [5]: 11.5 min
- Time (min) to increase A405 by: 0.2 [5]: 12.7 min
- Time (min) to increase A405 by: 0.4 [5]: 13.8 min
- Time (min) to increase A405 by: 0.8 [5]: 15.0 min
- Time (min) to increase A405 by: 1.6 [5]: 15.0 min
- Time (min) to increase A405 by: 3.2 [5]: 17.7 min
- Time (min) to increase A405 by: 0.025 [6]: 28.7 min
- Time (min) to increase A405 by: 0.05 [6]: n.r.
- Time (min) to increase A405 by: 0.1 [6]: n.r.
- Time (min) to increase A405 by: 0.2 [6]: n.r.
- Time (min) to increase A405 by: 0.4 [6]: n.r.
- Time (min) to increase A405 by: 0.8 [6]: n.r.
- Time (min) to increase A405 by: 1.6 [6]: n.r.
- Time (min) to increase A405 by: 3.2 [6]: n.r.
- Time (min) to increase A405 by: 0.025 [7]: 9.7 min
- Time (min) to increase A405 by: 0.05 [7]: 11.3 min
- Time (min) to increase A405 by: 0.1 [7]: 12.7 min
- Time (min) to increase A405 by: 0.2 [7]: 14.0 min
- Time (min) to increase A405 by: 0.4 [7]: 15.5 min
- Time (min) to increase A405 by: 0.8 [7]: 17.3 min
- Time (min) to increase A405 by: 1.6 [7]: 19.5 min
- Time (min) to increase A405 by: 3.2 [7]: 22.8 min
- Time (min) to increase A405 by: 0.025 [8]: 6.0 min
- Time (min) to increase A405 by: 0.05 [8]: 8.0 min
- Time (min) to increase A405 by: 0.1 [8]: 9.2 min
- Time (min) to increase A405 by: 0.2 [8]: 10.2 min
- Time (min) to increase A405 by: 0.4 [8]: 11.3 min
- Time (min) to increase A405 by: 0.8 [8]: 12.5 min
- Time (min) to increase A405 by: 1.6 [8]: 13.8 min
- Time (min) to increase A405 by: 3.2 [8]: 15.3 min
- Time (min) to increase A405 by: 0.025 [9]: 6.3 min
- Time (min) to increase A405 by: 0.05 [9]: 7.7 min
- Time (min) to increase A405 by: 0.1 [9]: 8.8 min
- Time (min) to increase A405 by: 0.2 [9]: 10.0 min
- Time (min) to increase A405 by: 0.4 [9]: 11.2 min
- Time (min) to increase A405 by: 0.8 [9]: 12.3 min
- Time (min) to increase A405 by: 1.6 [9]: 13.5 min
- Time (min) to increase A405 by: 3.2 [9]: 14.7 min
- Initial rate (mOD/min) [10]: 2 mOD/min
- Time (min) to increase A405 by: 0.025 [10]: 5.5 min
- Time (min) to increase A405 by: 0.05 [10]: 6.8 min
- Time (min) to increase A405 by: 0.1 [10]: 8.2 min
- Time (min) to increase A405 by: 0.2 [10]: 9.5 min
- Time (min) to increase A405 by: 0.4 [10]: 10.7 min
- Time (min) to increase A405 by: 0.8 [10]: 11.8 min
- Time (min) to increase A405 by: 1.6 [10]: 13.3 min
- Time (min) to increase A405 by: 3.2 [10]: 15.2 min
- Initial rate (mOD/min) [11]: 6 mOD/min
- Time (min) to increase A405 by: 0.025 [11]: 2.7 min
- Time (min) to increase A405 by: 0.05 [11]: 3.5 min
- Time (min) to increase A405 by: 0.1 [11]: 4.8 min
- Time (min) to increase A405 by: 0.2 [11]: 6.0 min
- Time (min) to increase A405 by: 0.4 [11]: 7.2 min
- Time (min) to increase A405 by: 0.8 [11]: 8.3 min
- Time (min) to increase A405 by: 1.6 [11]: 9.7 min
- Time (min) to increase A405 by: 3.2 [11]: 11.0 min
- Initial rate (mOD/min) [12]: 40 mOD/min
- Time (min) to increase A405 by: 0.025 [12]: 0.5 min
- Time (min) to increase A405 by: 0.05 [12]: 1.0 min
- Time (min) to increase A405 by: 0.1 [12]: 1.7 min
- Time (min) to increase A405 by: 0.2 [12]: 2.3 min
- Time (min) to increase A405 by: 0.4 [12]: 3.3 min
- Time (min) to increase A405 by: 0.8 [12]: 4.8 min
- Time (min) to increase A405 by: 1.6 [12]: 6.3 min
- Time (min) to increase A405 by: 3.2 [12]: 7.7 min
